5 substances from PMC11388181 can be followed below.

Data set [1] is described as follows: Confocal immunofluorescence, HEK293. The following applies: glycan lost; control: wild type.
Data set [2] in a line: Western blot, B7-H5/GAPDH, HEK293 lysates. The following applies: glycan lost; control: wild type.

B7-H5/VISTA: N91A: the localisation_or_trafficking entry in data set [1] is reported as “no change”. Besides, in data set [2], the expression_or_secretion entry is listed as “no change”.

For the substance B7-H5/VISTA: N135A, the localisation_or_trafficking entry in data set [1] is recorded as “no change”. In addition, the expression_or_secretion entry in data set [2] was “no change”.

As to B7-H5/VISTA: N128A, the localisation_or_trafficking result in data set [1] was “no change”. For the same substance, the expression_or_secretion result in data set [2] is “no change”.

With B7-H5/VISTA: N49A, in data set [1], the localisation_or_trafficking entry was “no change”. Moreover, the expression_or_secretion entry in data set [2] is “no change”.

As to B7-H5/VISTA: N108A, the localisation_or_trafficking result in data set [1] is reported as “no change”. In addition, in data set [2], the expression_or_secretion entry is “no change”.
